Paper PMC11505469
pKd: −log10 of the molar value.

How the values were obtained:
CD3εδ = experiment: SPR
Human FcRn = experiment: SPR

- pKd (CD3εδ): 7.39
- pKd (Human FcRn): 6.62
Substance: ISB 2001 (from UniProt P01857)
